B1: ZBED3 (parent)
chain: GPGFHAGTSALWRHLRSAHRRELE

Variants of: B1
Experiment: protein stability index of a GFP-peptide fusion (GPS, HEK-293T) (PSI 1-6); higher = more stable
Conditions: c terminus: a fixed tail appended
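Note: lentivirally expressed fusions sorted by FACS into six bins by GFP to DsRed ratio, PSI derived from sequencing read proportions per bin multiplied by bin number.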

Variant	protein stability index
GPGFHAGTSALCRHLRSAHRRELE [W12C]	1.45
GPGFHAGTSALDRHLRSAHRRELE [W12D]	2.92
GPGFHAGTSALTRHLRSAHRRELE [W12T]	2.54
GPGFHAGTSALPRHLRSAHRRELE [W12P]	2.14
GPGFHAGTSALERHLRSAHRRELE [W12E]	3.17
GPGFHAGTSALKRHLRSAHRRELE [W12K]	3.18
GPGFHAGTSALFRHLRSAHRRELE [W12F]	2.1
GPGFHAGTSALSRHLRSAHRRELE [W12S]	2.61
GPGFHAGTSALVRHLRSAHRRELE [W12V]	2.44
GPGFHAGTSALQRHLRSAHRRELE [W12Q]	2.72
GPGFHAGTSALLRHLRSAHRRELE [W12L]	2.24
GPGFHAGTSALRRHLRSAHRRELE [W12R]	3.35
GPGFHAGTSALMRHLRSAHRRELE [W12M]	1.84
GPGFHAGTSALYRHLRSAHRRELE [W12Y]	2.63
GPGFHAGTSALHRHLRSAHRRELE [W12H]	2.16
GPGFHAGTSALGRHLRSAHRRELE [W12G]	1.64
GPGFHAGTSALARHLRSAHRRELE [W12A]	3.38
GPGFHAGTSALNRHLRSAHRRELE [W12N]	2.3
GPGFHAGTSALIRHLRSAHRRELE [W12I]	2.07
GPGFHAGTSALWRHLASAHRRELE [R16A]	2.45
GPGFHAGTSALWRHLCSAHRRELE [R16C]	1.62
GPGFHAGTSALWRHLFSAHRRELE [R16F]	2.07
GPGFHAGTSALWRHLESAHRRELE [R16E]	2.41
GPGFHAGTSALWRHLDSAHRRELE [R16D]	2.25

Variant	protein stability index
GPGFHAGTSALWRILRSAHRRELE [H14I]	1.78
GPGFHAGTSALWRWLRSAHRRELE [H14W]	1.74
GPGFHAGTSALWRGLRSAHRRELE [H14G]	2.76
GPGFHAGTSALWRVLRSAHRRELE [H14V]	2.33
GPGFHAGTSALWRLLRSAHRRELE [H14L]	2.62
GPGFHAGTSALWRPLRSAHRRELE [H14P]	2.1
GPGFHAGTSALWRYLRSAHRRELE [H14Y]	1.98
GPGFHAGTSALWRELRSAHRRELE [H14E]	2.33
GPGFHAGTSALWRTLRSAHRRELE [H14T]	2.28
GPGFHAGTSALWRALRSAHRRELE [H14A]	2.3
GPGFHAGTSALWRQLRSAHRRELE [H14Q]	2.51
GPGFHAGTSALWRFLRSAHRRELE [H14F]	1.68
GPGFHAGTSALWRSLRSAHRRELE [H14S]	2.2
GPGFHAGTSALWRKLRSAHRRELE [H14K]	2.2
GPGFHAGTSALWRDLRSAHRRELE [H14D]	2.13
GPGFHAGTSALWRRLRSAHRRELE [H14R]	2.32
GPGFHAGTSALWRMLRSAHRRELE [H14M]	1.99
GPGFHAGTSALWRCLRSAHRRELE [H14C]	2.17
GPGFHAGTSALWRNLRSAHRRELE [H14N]	2.16
GPGFHAGTSALWQHLRSAHRRELE [R13Q]	2.72
GPGFHAGTSALWPHLRSAHRRELE [R13P]	2.12
GPGFHAGTSALWLHLRSAHRRELE [R13L]	1.79
GPGFHAGTSALWFHLRSAHRRELE [R13F]	1.73
GPGFHAGTSALWCHLRSAHRRELE [R13C]	1.47

Variant	protein stability index
GPGFHAGTSALWKHLRSAHRRELE [R13K]	2.08
GPGFHAGTSALWWHLRSAHRRELE [R13W]	1.93
GPGFHAGTSALWHHLRSAHRRELE [R13H]	1.98
GPGFHAGTSALWNHLRSAHRRELE [R13N]	2.13
GPGFHAGTSALWMHLRSAHRRELE [R13M]	1.99
GPGFHAGTSALWYHLRSAHRRELE [R13Y]	2.1
GPGFHAGTSALWAHLRSAHRRELE [R13A]	2.8
GPGFHAGTSALWSHLRSAHRRELE [R13S]	1.36
GPGFHAGTSALWGHLRSAHRRELE [R13G]	1.81
GPGFHAGTSALWIHLRSAHRRELE [R13I]	1.88
GPGFHAGTSALWEHLRSAHRRELE [R13E]	2.14
GPGFHAGTSALWVHLRSAHRRELE [R13V]	1.88
GPGFHAGTSALWTHLRSAHRRELE [R13T]	1.99
GPGFHAGTSALWRHTRSAHRRELE [L15T]	2.05
GPGFHAGTSALWRHDRSAHRRELE [L15D]	1.87
GPGFHAGTSALWRHHRSAHRRELE [L15H]	2.34
GPGFHAGTSALWRHNRSAHRRELE [L15N]	2.57
GPGFHAGTSALWRHWRSAHRRELE [L15W]	2.7
GPGFHAGTSALWRHFRSAHRRELE [L15F]	2.16
GPGFHAGTSALWRHGRSAHRRELE [L15G]	1.27
GPGFHAGTSALWRHQRSAHRRELE [L15Q]	1.78
GPGFHAGTSALWRHARSAHRRELE [L15A]	1.93
GPGFHAGTSALWRHMRSAHRRELE [L15M]	2.7
GPGFHAGTSALWRHSRSAHRRELE [L15S]	2.21

Variant	protein stability index
GPGFHAGTSALWRHRRSAHRRELE [L15R]	3.45
GPGFHAGTSALWRHIRSAHRRELE [L15I]	2.3
GPGFHAGTSALWRHPRSAHRRELE [L15P]	1.76
GPGFHAGTSALWRHERSAHRRELE [L15E]	1.76
GPGFHAGTSALWRHYRSAHRRELE [L15Y]	2.1
GPGFHAGTSALWRHKRSAHRRELE [L15K]	3.15
GPGFHAGTSAQWRHLRSAHRRELE [L11Q]	2.54
GPGFHAGTSAKWRHLRSAHRRELE [L11K]	3.32
GPGFHAGTSAWWRHLRSAHRRELE [L11W]	2.85
GPGFHAGTSAPWRHLRSAHRRELE [L11P]	2.23
GPGFHAGTSARWRHLRSAHRRELE [L11R]	3.19
GPGFHAGTSAHWRHLRSAHRRELE [L11H]	3.28
GPGFHAGTSAGWRHLRSAHRRELE [L11G]	1.74
GPGFHAGTSAVWRHLRSAHRRELE [L11V]	1.99
GPGFHAGTSAEWRHLRSAHRRELE [L11E]	2.52
GPGFHAGTSAMWRHLRSAHRRELE [L11M]	2.64
GPGFHAGTSANWRHLRSAHRRELE [L11N]	2.3
GPGFHAGTSAYWRHLRSAHRRELE [L11Y]	3.19
GPGFHAGTSAIWRHLRSAHRRELE [L11I]	2.32
GPGFHAGTSATWRHLRSAHRRELE [L11T]	2.16
GPGFHAGTSAFWRHLRSAHRRELE [L11F]	1.7
GPGFHAGTSASWRHLRSAHRRELE [L11S]	2.03
